Columns and labels:
FGFR1 = FGFR1 (UniProt P11362); assay: phosphorylation enrichment, bacterial display (enrichment ratio); higher = better substrate or ligand; peptides without Tyr show the background
c-Abl (mouse) = assay: as above
FGFR3 = FGFR3 (UniProt P22607); assay: as above
EPHB2 = EPHB2 (UniProt P29323); assay: as above
Fer (mouse) = assay: as above
c-Src = assay: as above
AncSZ = assay: as above
EPHB1 = EPHB1 (UniProt P54762); assay: as above
Hck = Hck (UniProt P08631); assay: as above
Chain of Hck (P08631 whole entry, looked up): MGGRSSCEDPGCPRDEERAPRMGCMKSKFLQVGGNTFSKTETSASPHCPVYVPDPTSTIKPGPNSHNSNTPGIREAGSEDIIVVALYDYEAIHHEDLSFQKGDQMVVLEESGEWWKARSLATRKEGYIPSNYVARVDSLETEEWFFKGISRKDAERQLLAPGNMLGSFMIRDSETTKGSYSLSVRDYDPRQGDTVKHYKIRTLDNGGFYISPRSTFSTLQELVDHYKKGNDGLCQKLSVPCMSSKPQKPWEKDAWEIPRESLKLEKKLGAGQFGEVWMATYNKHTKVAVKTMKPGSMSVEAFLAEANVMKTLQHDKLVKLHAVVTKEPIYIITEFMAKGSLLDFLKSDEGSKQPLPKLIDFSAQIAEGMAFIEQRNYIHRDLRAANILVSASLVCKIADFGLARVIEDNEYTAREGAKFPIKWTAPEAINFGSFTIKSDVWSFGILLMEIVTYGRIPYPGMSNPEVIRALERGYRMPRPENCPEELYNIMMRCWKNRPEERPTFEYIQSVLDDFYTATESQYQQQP

MERTK = MERTK (UniProt Q12866); assay: as above
Fyn = Fyn (UniProt P06241); assay: as above
Chain of Fyn (P06241 whole entry, looked up): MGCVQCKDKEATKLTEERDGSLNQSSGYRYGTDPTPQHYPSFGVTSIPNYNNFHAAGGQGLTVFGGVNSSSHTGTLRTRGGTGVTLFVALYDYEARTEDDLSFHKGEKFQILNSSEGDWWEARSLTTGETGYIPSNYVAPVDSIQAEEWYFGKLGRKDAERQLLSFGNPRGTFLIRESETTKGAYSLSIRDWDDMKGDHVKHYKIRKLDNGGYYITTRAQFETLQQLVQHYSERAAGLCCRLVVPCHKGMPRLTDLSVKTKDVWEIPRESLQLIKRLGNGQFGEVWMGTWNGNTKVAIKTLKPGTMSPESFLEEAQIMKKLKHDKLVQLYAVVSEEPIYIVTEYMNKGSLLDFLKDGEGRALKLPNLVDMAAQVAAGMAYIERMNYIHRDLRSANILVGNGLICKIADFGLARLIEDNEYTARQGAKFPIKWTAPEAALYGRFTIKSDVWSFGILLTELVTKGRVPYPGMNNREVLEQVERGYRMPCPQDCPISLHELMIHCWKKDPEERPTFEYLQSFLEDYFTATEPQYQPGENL

Fes = Fes (UniProt P07332); assay: as above
Chain of Fes (P07332 whole entry, looked up): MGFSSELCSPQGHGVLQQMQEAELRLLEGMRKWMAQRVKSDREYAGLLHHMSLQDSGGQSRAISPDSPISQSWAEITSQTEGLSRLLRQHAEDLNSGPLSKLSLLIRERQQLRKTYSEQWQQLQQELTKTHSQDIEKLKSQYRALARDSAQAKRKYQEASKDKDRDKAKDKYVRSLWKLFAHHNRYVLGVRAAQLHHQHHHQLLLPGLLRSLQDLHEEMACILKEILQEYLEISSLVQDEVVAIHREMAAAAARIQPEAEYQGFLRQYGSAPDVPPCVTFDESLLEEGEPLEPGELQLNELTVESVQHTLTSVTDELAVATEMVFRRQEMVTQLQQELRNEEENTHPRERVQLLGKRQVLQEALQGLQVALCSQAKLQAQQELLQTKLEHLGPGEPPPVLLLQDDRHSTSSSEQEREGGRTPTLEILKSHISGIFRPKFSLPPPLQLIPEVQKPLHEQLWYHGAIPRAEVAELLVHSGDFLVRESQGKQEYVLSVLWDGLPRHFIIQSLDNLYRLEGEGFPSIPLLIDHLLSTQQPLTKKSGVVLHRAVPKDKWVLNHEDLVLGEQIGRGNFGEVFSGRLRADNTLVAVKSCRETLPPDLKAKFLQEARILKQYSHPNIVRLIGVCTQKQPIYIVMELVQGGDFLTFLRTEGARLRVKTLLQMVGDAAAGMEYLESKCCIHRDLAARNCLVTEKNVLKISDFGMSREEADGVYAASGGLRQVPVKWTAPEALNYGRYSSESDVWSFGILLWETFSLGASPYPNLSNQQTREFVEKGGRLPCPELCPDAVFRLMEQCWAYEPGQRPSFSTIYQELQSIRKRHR

Jak2 = Jak2 (UniProt O60674); assay: as above
Chain of Jak2 (O60674 whole entry, looked up): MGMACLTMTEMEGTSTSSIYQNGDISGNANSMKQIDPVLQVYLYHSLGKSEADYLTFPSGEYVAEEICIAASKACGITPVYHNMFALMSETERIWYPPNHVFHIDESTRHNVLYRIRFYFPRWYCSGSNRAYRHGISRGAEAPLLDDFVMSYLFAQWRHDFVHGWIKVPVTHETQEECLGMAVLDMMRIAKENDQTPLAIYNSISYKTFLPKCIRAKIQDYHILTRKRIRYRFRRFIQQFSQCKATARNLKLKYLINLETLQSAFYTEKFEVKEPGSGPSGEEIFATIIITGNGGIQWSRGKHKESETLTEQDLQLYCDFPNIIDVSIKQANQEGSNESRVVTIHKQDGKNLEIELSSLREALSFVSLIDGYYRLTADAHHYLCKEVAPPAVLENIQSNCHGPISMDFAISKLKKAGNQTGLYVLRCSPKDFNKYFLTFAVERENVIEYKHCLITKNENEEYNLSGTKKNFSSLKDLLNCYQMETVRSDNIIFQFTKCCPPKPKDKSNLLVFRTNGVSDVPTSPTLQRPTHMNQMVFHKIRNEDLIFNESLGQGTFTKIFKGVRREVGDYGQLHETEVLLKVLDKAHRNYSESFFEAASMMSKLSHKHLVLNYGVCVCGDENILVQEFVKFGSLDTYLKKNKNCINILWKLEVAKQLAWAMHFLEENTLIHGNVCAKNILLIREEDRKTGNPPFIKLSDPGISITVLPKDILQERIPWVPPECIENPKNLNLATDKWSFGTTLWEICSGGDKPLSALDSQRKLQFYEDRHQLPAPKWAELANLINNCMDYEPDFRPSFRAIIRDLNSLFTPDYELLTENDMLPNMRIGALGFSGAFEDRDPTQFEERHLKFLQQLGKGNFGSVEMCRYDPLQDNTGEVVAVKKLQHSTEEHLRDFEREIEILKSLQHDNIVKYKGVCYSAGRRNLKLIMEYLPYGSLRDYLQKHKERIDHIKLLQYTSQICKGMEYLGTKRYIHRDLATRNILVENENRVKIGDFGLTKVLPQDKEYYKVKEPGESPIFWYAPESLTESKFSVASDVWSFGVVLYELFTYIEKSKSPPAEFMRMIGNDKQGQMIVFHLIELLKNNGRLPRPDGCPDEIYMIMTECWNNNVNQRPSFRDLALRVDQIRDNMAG

SHP2-C SH2 = assay: SH2 binding enrichment of the phosphorylated peptide, bacterial display (enrichment ratio); higher = better substrate or ligand; peptides without Tyr show the background
Grb2 SH2 = Grb2 SH2 (UniProt P62993); assay: as above
c-Src SH2 = assay: as above
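Wherever SH2 binding enrichment of the phosphorylated peptide, bacterial display is given: peptide library displayed on the E. coli surface as eCPX fusions, selected cells deep-sequenced, score is each peptide's frequency after selection divided by its frequency in the input.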
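Wherever phosphorylation enrichment, bacterial display is given: 11-residue human phosphosite peptides and single-mutation variants displayed on the E. coli surface, counted by deep sequencing, each peptide's frequency after selection divided by its frequency in the unselected input library; frequency after pTyr selection over input frequency; kinase dosed for 20-30% of maximal phosphorylation in three min.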

Chain of EPHB2 (P29323 whole entry, looked up): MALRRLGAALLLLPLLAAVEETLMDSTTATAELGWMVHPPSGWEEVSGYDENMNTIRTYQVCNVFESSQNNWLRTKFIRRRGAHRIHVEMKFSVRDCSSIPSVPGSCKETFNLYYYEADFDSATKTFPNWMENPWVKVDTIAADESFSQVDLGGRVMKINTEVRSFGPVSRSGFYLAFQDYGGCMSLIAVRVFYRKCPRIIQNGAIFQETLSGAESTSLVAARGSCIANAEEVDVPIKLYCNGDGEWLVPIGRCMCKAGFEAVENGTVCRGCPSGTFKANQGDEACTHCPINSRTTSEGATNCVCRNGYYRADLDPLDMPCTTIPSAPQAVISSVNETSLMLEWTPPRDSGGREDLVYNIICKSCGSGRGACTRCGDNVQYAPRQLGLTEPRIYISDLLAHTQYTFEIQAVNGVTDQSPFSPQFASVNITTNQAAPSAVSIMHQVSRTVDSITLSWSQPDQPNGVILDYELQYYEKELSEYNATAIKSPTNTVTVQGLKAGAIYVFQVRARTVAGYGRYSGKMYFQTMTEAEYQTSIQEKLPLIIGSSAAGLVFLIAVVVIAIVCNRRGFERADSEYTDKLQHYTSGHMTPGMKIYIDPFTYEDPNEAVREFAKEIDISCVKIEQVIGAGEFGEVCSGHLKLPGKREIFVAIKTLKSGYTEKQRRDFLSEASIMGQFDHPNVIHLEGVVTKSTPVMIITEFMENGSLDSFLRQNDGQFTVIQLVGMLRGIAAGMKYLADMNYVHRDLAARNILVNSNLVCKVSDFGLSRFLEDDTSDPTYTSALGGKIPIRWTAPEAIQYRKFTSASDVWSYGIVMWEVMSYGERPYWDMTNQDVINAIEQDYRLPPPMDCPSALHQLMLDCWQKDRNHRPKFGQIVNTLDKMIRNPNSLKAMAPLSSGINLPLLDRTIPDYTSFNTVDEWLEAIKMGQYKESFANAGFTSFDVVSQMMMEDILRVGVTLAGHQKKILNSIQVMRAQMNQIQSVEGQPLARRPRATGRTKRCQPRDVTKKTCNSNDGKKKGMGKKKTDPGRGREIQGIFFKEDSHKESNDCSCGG
Chain of FGFR1 (P11362 whole entry, looked up): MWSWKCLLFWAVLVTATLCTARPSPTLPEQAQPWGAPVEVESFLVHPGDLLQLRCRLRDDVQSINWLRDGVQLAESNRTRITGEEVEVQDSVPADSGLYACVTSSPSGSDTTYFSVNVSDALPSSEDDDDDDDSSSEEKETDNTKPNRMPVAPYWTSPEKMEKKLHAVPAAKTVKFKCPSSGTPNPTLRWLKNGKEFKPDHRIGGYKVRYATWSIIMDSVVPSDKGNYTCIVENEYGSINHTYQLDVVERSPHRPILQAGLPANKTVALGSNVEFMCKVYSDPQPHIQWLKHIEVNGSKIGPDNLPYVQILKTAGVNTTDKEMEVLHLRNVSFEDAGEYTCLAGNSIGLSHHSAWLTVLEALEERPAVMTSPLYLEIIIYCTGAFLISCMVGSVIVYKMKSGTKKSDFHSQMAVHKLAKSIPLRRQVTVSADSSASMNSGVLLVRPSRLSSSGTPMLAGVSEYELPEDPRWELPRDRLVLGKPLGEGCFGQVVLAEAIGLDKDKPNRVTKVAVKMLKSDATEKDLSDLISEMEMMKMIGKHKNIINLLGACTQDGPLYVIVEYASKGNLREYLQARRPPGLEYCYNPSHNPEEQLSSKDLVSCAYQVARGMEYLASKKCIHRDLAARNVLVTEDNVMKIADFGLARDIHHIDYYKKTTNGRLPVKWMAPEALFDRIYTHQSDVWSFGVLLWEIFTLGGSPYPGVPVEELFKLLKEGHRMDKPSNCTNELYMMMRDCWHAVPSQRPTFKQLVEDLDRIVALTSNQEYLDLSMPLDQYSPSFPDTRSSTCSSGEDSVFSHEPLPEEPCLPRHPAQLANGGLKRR

Sequence | phosphorylation enrichment (FGFR1) | phosphorylation enrichment (c-Abl (mouse)) | phosphorylation enrichment (FGFR3) | phosphorylation enrichment (EPHB2) | phosphorylation enrichment (Fer (mouse)) | phosphorylation enrichment (c-Src) | phosphorylation enrichment (AncSZ) | phosphorylation enrichment (EPHB1) | phosphorylation enrichment (Hck) | phosphorylation enrichment (MERTK) | phosphorylation enrichment (Fyn) | phosphorylation enrichment (Fes) | phosphorylation enrichment (Jak2) | SH2 binding enrichment (SHP2-C SH2) | SH2 binding enrichment (Grb2 SH2) | SH2 binding enrichment (c-Src SH2)
SPRDTYSDRSG [CTPS1_Y567] | 0.382 | 0.608 | 0.438 | 0.473 | 0.369 | 0.375 | 0.494 | 0.298 | 0.507 | 0.322 | 0.443 | 0.572 | 0.521 | 0.503 | 0.76 | 0.479
KGSEGYLAAIY [NF1_Y2503_T2507I] | 0.572 | 0.563 | 0.552 | 0.561 | 0.493 | 0.898 | 0.78 | 0.525 | 1.09 | 0.485 | 0.8 | 0.912 | 0.673 | 0.606 | 0.911 | 0.54
GEEIKYTLWLS [OTC_Y55_M56T] | 0.538 | 0.873 | 0.882 | 0.605 | 0.712 | 0.443 | 1.35 | 0.704 | 0.529 | 0.512 | 0.418 | 1.4 | 1.21 | 0.644 | 0.725 | 0.379
EKMWSYTKSAE [GRIA3_Y705_M706T] | 0.419 | 0.68 | 0.529 | 0.487 | 0.411 | 0.464 | 0.658 | 0.426 | 0.451 | 0.44 | 0.425 | 0.748 | 0.592 | 0.937 | 0.869 | 0.473
LEIETDRRLLD [KRT12_Y429_Y429D] | 1.35 | 2.64 | 1.4 | 1.03 | 1.06 | 1.41 | 2.31 | 1.13 | 1.08 | 0.93 | 1.29 | 3.18 | 2.8 | 1.11 | 1 | 0.538
DEIPLYLKGGV [COX7A2_Y44] | 0.5 | 0.593 | 0.656 | 0.508 | 0.485 | 0.422 | 0.79 | 0.566 | 0.522 | 0.391 | 0.492 | 0.962 | 0.854 | 0.716 | 0.83 | 0.454
GRERPYGGGGG [FUS_Y526_R521G] | 1.02 | 0.416 | 0.487 | 0.492 | 0.6 | 0.854 | 0.498 | 0.654 | 0.787 | 0.968 | 0.357 | 0.565 | 0.512 | 0.824 | 0.722 | 0.485
QSKGIYYVQLE [MGAT4B_Y262] | 3.51 | 1.1 | 3 | 0.872 | 0.763 | 3.33 | 1.21 | 1.12 | 2.22 | 8.64 | 2.5 | 1.42 | 1.47 | 1.71 | 0.724 | 1.35
VTPVMYTFDEF [COL10A1_Y623_G618V_YF] | 0.591 | 0.662 | 0.654 | 0.668 | 0.458 | 0.715 | 1.03 | 0.665 | 0.531 | 0.962 | 0.737 | 1.19 | 1.02 | 0.698 | 0.93 | 0.772

Source: the supplement of paper PMC10065799, “High-throughput profiling of sequence recognition by tyrosine kinases and SH2 domains using bacterial peptide display” (eLife, 2023)
